Test results as given in EP3020822A1.

Molecular target: human TLR3, full length (human) (UniProt O15455)
Assay: cell-based or functional assay

% inhibition of TLR3 biological activity, poly(I:C) NF-κB reporter gene assay in 293T cells, mAb at 10 µg/ml: 38% | TLR3 neutralization at saturation concentrations: 50%
B1: mAb c1068 (antibody, from another filing, V domains shown)
VH: QVQLQQPGAELVQPGTSVRLSCKASGYIFTTYWIHWVKQRPGQGLEWIGEINPNNGRINYNEKFKTKATLTVDKSSSTAYMQLSSLTSEDSAVYYCTRVGVMITTFPYWGQGTLVTVSA
VL: DIQMTQSPASLSASVGETVTITCRASGNIHNYLAWYQQKQGKSPQLLVYNAKTLADGVPSRFSGSESGTQYSLKINSLQPEDFGSYYCQHFWSTPFTFGSGTKLELK
